IntAct's records for PubMed 23933751

B1: F-box only protein 7 (Homo sapiens), Q9Y3I1 (parent)
chain: MRLRVRLLKRTWPLEVPETEPTLGHLRSHLRQSLLCTWGYSSNTRFTITLNYKDPLTGDEETLASYGIVSGDLICLILQDDIPAPNIPSSTDSEHSSLQNNEQPSLATSSNQTSMQDEQPSDSFQGQAAQSGVWNDDSMLGPSQNFEAESIQDNAHMAEGTGFYPSEPMLCSESVEGQVPHSLETLYQSADCSDANDALIVLIHLLMLESGYIPQGTEAKALSMPEKWKLSGVYKLQYMHPLCEGSSATLTCVPLGNLIVVNATLKINNEIRSVKRLQLLPESFICKEKLGENVANIYKDLQKLSRLFKDQLVYPLLAFTRQALNLPDVFGLVVLPLELKLRIFRLLDVRSVLSLSAVCRDLFTASNDPLLWRFLYLRDFRDNTVRVQDTDWKELYRKRHIQRKESPKGRFVMLLPSSTHTIPFYPNPLHPRPFPSSRLPPGIIGGEYDQRPTLPYVGDPISSLIPGPGETPSQFPPLRPRFDPVGPLPGPNPILPGRGGPNDRFPFRPSRGRPTDGRLSFM

Variants of: B1
Conditions: with prkn_human PRKN

Variant	effect of a mutation on the interaction
MRLRVRLLKRTWPLEVPETEPMLGHLRSHLRQSLLCTWGYSSNTRFTITLNYKDPLTGDEETLASYGIVSGDLICLILQDDIPAPNIPSSTDSEHSSLQNNEQPSLATSSNQTSMQDEQPSDSFQGQAAQSGVWNDDSMLGPSQNFEAESIQDNAHMAEGTGFYPSEPMLCSESVEGQVPHSLETLYQSADCSDANDALIVLIHLLMLESGYIPQGTEAKALSMPEKWKLSGVYKLQYMHPLCEGSSATLTCVPLGNLIVVNATLKINNEIRSVKRLQLLPESFICKEKLGENVANIYKDLQKLSRLFKDQLVYPLLAFTRQALNLPDVFGLVVLPLELKLRIFRLLDVRSVLSLSAVCRDLFTASNDPLLWRFLYLRDFRDNTVRVQDTDWKELYRKRHIQRKESPKGRFVMLLPSSTHTIPFYPNPLHPRPFPSSRLPPGIIGGEYDQRPTLPYVGDPISSLIPGPGETPSQFPPLRPRFDPVGPLPGPNPILPGRGGPNDRFPFRPSRGRPTDGRLSFM [T22M]	disrupting interaction
